# According to patent US20260242735A1 (UNIVERSIT T BASEL, published 2026):
# B1: Refmab #5 (antibody, V domains shown)
# VH: QVQLVQSGAEVKKPGASVKVSCKASGYTFTNYDINWVRQAPGQGLEWIGWIYPGDGSTKYNEKFKAKATLTADTSTSTAYMELRSLRSDDTAVYYCASGYEDAMDYWGQGTTVTVSS
# VL: DIQMTQSPSSLSASVGDRVTINCKASQDINSYLSWFQQKPGKAPKTLIYRANRLVDGVPSRFSGSGSGQDYTLTISSLQPEDFATYYCLQYDEFPLTFGGGTKVEIK
# notes: Full-length format is human IgG1 Fc silent (PG-LALA); also made as Fab; The alanine scan used IgG or Fab
# B2: Refmab #6 (antibody, V domains shown)
# VH: QVQLQQPGAEVVKPGASVKMSCKASGYTFTSYYIHWIKQTPGQGLEWVGVIYPGNDDISYNQKFQGKATLTADKSSTTAYMQLSSLTSEDSAVYYCAREVRLRYFDVWGQGTTVTVSS
# VL: EIVLTQSPGSLAVSPGERVTMSCKSSQSVFFSSSQKNYLAWYQQIPGQSPRLLIYWASTRESGVPDRFTGSGSGTDFTLTISSVQPEDLAIYYCHQYLSSRTFGQGTKLEIK
# notes: as for B1
# B3: Refmab #5 (antibody, human IgG1, V domains shown)
# VH: B1 VH
# VL: B1 VL
# notes: tested in IgG format
# B4: Refmab #6 (antibody, human IgG1, V domains shown)
# VH: B2 VH
# VL: B2 VL
# notes: tested in IgG format
# Assays:
# [1] = molecular target: human CD33 I227A (human, UniProt P20138 18-364); test: alanine scan, flow cytometry;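 note: HEK293-T cells transiently expressing single-residue alanine mutants of CD33 (alanine swapped to serine), antibody binding read by fluorescence in duplicate, background-subtracted, expressed relative to wild-type CD33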
# [2] = molecular target: human CD33 P203A (human, UniProt P20138 18-364); test: alanine scan, flow cytometry;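 note: HEK293-T cells transiently expressing single-residue alanine mutants of CD33 (alanine swapped to serine), antibody binding read by fluorescence in duplicate, background-subtracted, expressed relative to wild-type CD33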
# [3] = molecular target: human CD33 G207A (human, UniProt P20138 18-364); test: alanine scan, flow cytometry;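 note: HEK293-T cells transiently expressing single-residue alanine mutants of CD33 (alanine swapped to serine), antibody binding read by fluorescence in duplicate, background-subtracted, expressed relative to wild-type CD33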
# [4] = molecular target: human CD33 L210A (human, UniProt P20138 18-364); test: alanine scan, flow cytometry;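 note: HEK293-T cells transiently expressing single-residue alanine mutants of CD33 (alanine swapped to serine), antibody binding read by fluorescence in duplicate, background-subtracted, expressed relative to wild-type CD33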
# [5] = molecular target: human CD33 T226A (human, UniProt P20138 18-364); test: alanine scan, flow cytometry
# [6] = molecular target: human CD33 I199A (human, UniProt P20138 18-364); test: alanine scan, flow cytometry
# [7] = molecular target: human CD33 S248A (human, UniProt P20138 18-364); test: alanine scan, flow cytometry
# [8] = molecular target: human CD33 G247A (human, UniProt P20138 18-364); test: alanine scan, flow cytometry
# [9] = molecular target: T1, human CD33 I198A (human, UniProt P20138 18-364); test: alanine scan, flow cytometry
# T1 construct: the leading token is not explained
# [10] = molecular target: human CD33 G264A (human, UniProt P20138 18-364); test: alanine scan, flow cytometry
# [11] = molecular target: human CD33 K215A (human, UniProt P20138 18-364); test: alanine scan, flow cytometry
# [12] = molecular target: human CD33 G256A (human, UniProt P20138 18-364); test: alanine scan, flow cytometry
# [13] = molecular target: human CD33 V267A (human, UniProt P20138 18-364); test: alanine scan, flow cytometry
# [14] = molecular target: human CD33 V257A (human, UniProt P20138 18-364); test: alanine scan, flow cytometry
# [15] = molecular target: human CD33 P235A (human, UniProt P20138 18-364); test: alanine scan, flow cytometry
# [16] = molecular target: human CD33 Q24N (human, UniProt P20138 18-364); test: flow cytometry, HEK293-T, IgG;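 note: CD33 point mutants transiently expressed, antibody binding measured by fluorescence in duplicate, background subtracted and scaled to binding on wild-type CD33 as 100%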
# Method: (§1) An alanine scan on human CD33 was performed to the determine the residues on CD33 that are involved in binding to the antibodies investigated. […] Briefly, a mutation library of CD33 was created by high-throughput, site-directed mutagenesis. Each residue was individually mutated to alanine, with alanine codons mutated to serine. The mutant library was arrayed in 384-well microplates and transiently transfected into HEK293-T. Following transfection, cells were incubated with the indicated antibodies (IgG or Fab) at concentrations pre-determined using an independent immunofluorescence titration curve on wild type CD33. […] Binding of each antibody to each mutant clone was determined in duplicates. For each point, background fluorescence was subtracted from the raw data, which were then normalized to antibody reactivity with wild type CD33.
# (§2) Antibodies were screened for binding to the human CD33 variants in IgG format. […] For each mutation, background fluorescence was subtracted from the raw data, which were then normalized to antibody reactivity with wild-type CD33.
# [17] = molecular target: human CD33 N20P (human, UniProt P20138 18-364); test: flow cytometry, HEK293-T, IgG;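 note: CD33 point mutants transiently expressed, antibody binding measured by fluorescence in duplicate, background subtracted and scaled to binding on wild-type CD33 as 100%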
# Method: as §1, §2
# [18] = molecular target: human CD33 W22Y (human, UniProt P20138 18-364); test: flow cytometry, HEK293-T, IgG;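 note: CD33 point mutants transiently expressed, antibody binding measured by fluorescence in duplicate, background subtracted and scaled to binding on wild-type CD33 as 100%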
# Method: as §1, §2
# [19] = molecular target: human CD33 P19W (human, UniProt P20138 18-364); test: flow cytometry, HEK293-T, IgG;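 note: CD33 point mutants transiently expressed, antibody binding measured by fluorescence in duplicate, background subtracted and scaled to binding on wild-type CD33 as 100%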
# Method: as §1, §2
# [20] = molecular target: human CD33 V25S (human, UniProt P20138 18-364); test: flow cytometry, HEK293-T, IgG
# Method: as §1, §2
# [21] = molecular target: human CD33 N20G (human, UniProt P20138 18-364); test: flow cytometry, HEK293-T, IgG
# Method: as §1, §2
# [22] = molecular target: human CD33 W22R (human, UniProt P20138 18-364); test: flow cytometry, HEK293-T, IgG
# Method: as §1, §2
# [23] = molecular target: human CD33 Q24R (human, UniProt P20138 18-364); test: flow cytometry, HEK293-T, IgG
# Method: as §1, §2
# [24] = molecular target: human CD33 P19L (human, UniProt P20138 18-364); test: flow cytometry, HEK293-T, IgG
# Method: as §1, §2
# [25] = molecular target: human CD33 W22E (human, UniProt P20138 18-364); test: flow cytometry, HEK293-T, IgG
# Method: as §1, §2
# [26] = molecular target: human CD33 W22G (human, UniProt P20138 18-364); test: flow cytometry, HEK293-T, IgG
# Method: as §1, §2
# [27] = molecular target: human CD33 F21L (human, UniProt P20138 18-364); test: flow cytometry, HEK293-T, IgG
# Method: as §1, §2
# [28] = molecular target: human CD33 N20K (human, UniProt P20138 18-364); test: flow cytometry, HEK293-T, IgG
# Method: as §1, §2
# [29] = molecular target: human CD33 P19D (human, UniProt P20138 18-364); test: flow cytometry, HEK293-T, IgG
# Method: as §1, §2
# [30] = molecular target: human CD33 Q24H (human, UniProt P20138 18-364); test: flow cytometry, HEK293-T, IgG
# Method: as §1, §2
# [31] = molecular target: human CD33 V25L (human, UniProt P20138 18-364); test: flow cytometry, HEK293-T, IgG
# Method: as §1, §2
# [32] = molecular target: human CD33 Q24I (human, UniProt P20138 18-364); test: flow cytometry, HEK293-T, IgG
# Method: as §1, §2
# [33] = molecular target: human CD33 D18N (human, UniProt P20138 19-364); test: flow cytometry, HEK293-T, IgG
# Method: as §1, §2
# [34] = molecular target: human CD33 N20S (human, UniProt P20138 18-364); test: flow cytometry, HEK293-T, IgG
# Method: as §1, §2
# [35] = molecular target: human CD33 Q24S (human, UniProt P20138 18-364); test: flow cytometry, HEK293-T, IgG
# Method: as §1, §2
# [36] = molecular target: human CD33 Q24T (human, UniProt P20138 18-364); test: flow cytometry, HEK293-T, IgG
# Method: as §1, §2
# [37] = molecular target: human CD33 W22Q (human, UniProt P20138 18-364); test: flow cytometry, HEK293-T, IgG
# Method: as §1, §2
# [38] = molecular target: human CD33 W22S (human, UniProt P20138 18-364); test: flow cytometry, HEK293-T, IgG
# Method: as §1, §2
# Chain of human CD33 G264A (P20138 18-364 G264A limits assumed): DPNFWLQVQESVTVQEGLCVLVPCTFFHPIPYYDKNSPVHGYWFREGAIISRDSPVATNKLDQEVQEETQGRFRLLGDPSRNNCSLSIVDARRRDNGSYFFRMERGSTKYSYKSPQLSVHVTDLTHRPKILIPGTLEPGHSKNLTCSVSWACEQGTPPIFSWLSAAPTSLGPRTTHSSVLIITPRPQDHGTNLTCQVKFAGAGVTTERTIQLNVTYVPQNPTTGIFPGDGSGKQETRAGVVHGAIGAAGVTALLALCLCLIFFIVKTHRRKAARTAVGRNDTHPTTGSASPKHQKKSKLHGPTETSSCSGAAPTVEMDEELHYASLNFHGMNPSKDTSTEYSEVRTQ
# Chain of human CD33 N20P (P20138 18-364 N20P limits assumed): as the sequence (P20138 18-364 G264A limits assumed) above, with N3P, A247G counted along it
# Chain of human CD33 Q24R (P20138 18-364 Q24R limits assumed): as the sequence (P20138 18-364 G264A limits assumed) above, with Q7R, A247G counted along it
# Chain of human CD33 W22Y (P20138 18-364 W22Y limits assumed): as the sequence (P20138 18-364 G264A limits assumed) above, with W5Y, A247G counted along it
# Chain of human CD33 W22R (P20138 18-364 W22R limits assumed): as the sequence (P20138 18-364 G264A limits assumed) above, with W5R, A247G counted along it
# Chain of human CD33 Q24S (P20138 18-364 Q24S limits assumed): as the sequence (P20138 18-364 G264A limits assumed) above, with Q7S, A247G counted along it
# Chain of human CD33 T226A (P20138 18-364 T226A limits assumed): as the sequence (P20138 18-364 G264A limits assumed) above, with T209A, A247G counted along it
# Chain of human CD33 W22G (P20138 18-364 W22G limits assumed): as the sequence (P20138 18-364 G264A limits assumed) above, with W5G, A247G counted along it
# Chain of human CD33 V25S (P20138 18-364 V25S limits assumed): as the sequence (P20138 18-364 G264A limits assumed) above, with V8S, A247G counted along it
# Chain of human CD33 P19L (P20138 18-364 P19L limits assumed): as the sequence (P20138 18-364 G264A limits assumed) above, with P2L, A247G counted along it
# T1 sequence (P20138 18-364 I198A limits assumed): as the sequence (P20138 18-364 G264A limits assumed) above, with I181A, A247G counted along it
# Chain of human CD33 I227A (P20138 18-364 I227A limits assumed): as the sequence (P20138 18-364 G264A limits assumed) above, with I210A, A247G counted along it
# Chain of human CD33 S248A (P20138 18-364 S248A limits assumed): as the sequence (P20138 18-364 G264A limits assumed) above, with S231A, A247G counted along it
# Chain of human CD33 V257A (P20138 18-364 V257A limits assumed): as the sequence (P20138 18-364 G264A limits assumed) above, with V240A, A247G counted along it
Binder,Mean % WT Binding [1] [% WT binding],Mean % WT Binding [2] [% WT binding],Mean % WT Binding [3] [% WT binding],Mean % WT Binding [4] [% WT binding],Mean % WT Binding [5] [% WT binding],Mean % WT Binding [6] [% WT binding],Mean % WT Binding [7] [% WT binding],Mean % WT Binding [8] [% WT binding],Mean % WT Binding [9] [% WT binding],Mean % WT Binding [10] [% WT binding],Mean % WT Binding [11] [% WT binding],Mean % WT Binding [12] [% WT binding],Mean % WT Binding [13] [% WT binding],Mean % WT Binding [14] [% WT binding],Mean % WT Binding [15] [% WT binding],Mean % WT Binding [16] [% WT binding],Mean % WT Binding [17] [% WT binding],Mean % WT Binding [18] [% WT binding],Mean % WT Binding [19] [% WT binding],Mean % WT Binding [20] [% WT binding],other results
B1,105,105,109,78.2,97.9,132,105,85.6,84.7,94.4,103,87.6,95.2,134,102,–,–,–,–,–,–
B2,88.1,103,98.6,96.9,96.5,106,94.4,105,89.3,103,85.6,108,101,98.1,84.3,–,–,–,–,–,–
B3,–,–,–,–,–,–,–,–,–,–,–,–,–,–,–,110,96.8,107,85.9,107,Mean % WT Binding [21]: 96.9 % WT binding; Mean % WT Binding [22]: 104 % WT binding; Mean % WT Binding [23]: 102 % WT binding; Mean % WT Binding [24]: 100 % WT binding; Mean % WT Binding [25]: 111 % WT binding; Mean % WT Binding [26]: 101 % WT binding; Mean % WT Binding [27]: 122 % WT binding; Mean % WT Binding [28]: 105 % WT binding; Mean % WT Binding [29]: 96.4 % WT binding; Mean % WT Binding [30]: 104 % WT binding; Mean % WT Binding [31]: 94.9 % WT binding; Mean % WT Binding [32]: 94.6 % WT binding; Mean % WT Binding [33]: 58.7 % WT binding; Mean % WT Binding [34]: 95.1 % WT binding; Mean % WT Binding [35]: 110 % WT binding; Mean % WT Binding [36]: 105 % WT binding; Mean % WT Binding [37]: 109 % WT binding; Mean % WT Binding [38]: 89.7 % WT binding
B4,–,–,–,–,–,–,–,–,–,–,–,–,–,–,–,95.4,97.2,4.1,75.5,94.7,Mean % WT Binding [21]: 101 % WT binding; Mean % WT Binding [22]: 1.3 % WT binding; Mean % WT Binding [23]: 86.2 % WT binding; Mean % WT Binding [24]: 103 % WT binding; Mean % WT Binding [25]: 1.7 % WT binding; Mean % WT Binding [26]: 8.1 % WT binding; Mean % WT Binding [27]: 118 % WT binding; Mean % WT Binding [28]: 91.8 % WT binding; Mean % WT Binding [29]: 105 % WT binding; Mean % WT Binding [30]: 100 % WT binding; Mean % WT Binding [31]: 104 % WT binding; Mean % WT Binding [32]: 89.9 % WT binding; Mean % WT Binding [33]: 32.2 % WT binding; Mean % WT Binding [34]: 101 % WT binding; Mean % WT Binding [35]: 80.7 % WT binding; Mean % WT Binding [36]: 97.7 % WT binding; Mean % WT Binding [37]: 7.6 % WT binding; Mean % WT Binding [38]: 6.7 % WT binding
